In US20240269235A1 (Gilead, published 2024):

T1: IL-2Rα (recombinant IL-2 receptor α, R&D Systems Cat #: 223-2A/CF), biotinylated (human, UniProt P01589 22-213, limits assumed, biotinylated using sulfo-NHS-LC-LC-Biotin)
T1 construct: Bought reagent; also used here as the IL-2Rα partner of the in-silico analysis of PDB 2B5I (another construct); also called IL-2RA; CD25
T1 sequence (looked up): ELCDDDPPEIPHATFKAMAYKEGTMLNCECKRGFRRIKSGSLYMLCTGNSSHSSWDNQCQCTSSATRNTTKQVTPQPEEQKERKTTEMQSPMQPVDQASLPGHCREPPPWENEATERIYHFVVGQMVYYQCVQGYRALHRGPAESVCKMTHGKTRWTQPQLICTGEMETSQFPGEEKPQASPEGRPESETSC

T2: IL-2Rαβγ on KHYG-1 cells (human NK leukemia cell line that expresses IL-2Rα, β, and γ) (human, UniProt P01589 22-272; P14784 27-551; P31785 23-369)
T2 sequence (looked up) 1: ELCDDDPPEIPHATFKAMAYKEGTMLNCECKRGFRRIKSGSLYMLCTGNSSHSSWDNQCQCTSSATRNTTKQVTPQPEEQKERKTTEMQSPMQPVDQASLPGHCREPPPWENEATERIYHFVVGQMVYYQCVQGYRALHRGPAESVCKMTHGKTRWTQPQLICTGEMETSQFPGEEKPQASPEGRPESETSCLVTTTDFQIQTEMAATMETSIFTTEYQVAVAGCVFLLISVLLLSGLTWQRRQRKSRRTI
T2 sequence (looked up) 2: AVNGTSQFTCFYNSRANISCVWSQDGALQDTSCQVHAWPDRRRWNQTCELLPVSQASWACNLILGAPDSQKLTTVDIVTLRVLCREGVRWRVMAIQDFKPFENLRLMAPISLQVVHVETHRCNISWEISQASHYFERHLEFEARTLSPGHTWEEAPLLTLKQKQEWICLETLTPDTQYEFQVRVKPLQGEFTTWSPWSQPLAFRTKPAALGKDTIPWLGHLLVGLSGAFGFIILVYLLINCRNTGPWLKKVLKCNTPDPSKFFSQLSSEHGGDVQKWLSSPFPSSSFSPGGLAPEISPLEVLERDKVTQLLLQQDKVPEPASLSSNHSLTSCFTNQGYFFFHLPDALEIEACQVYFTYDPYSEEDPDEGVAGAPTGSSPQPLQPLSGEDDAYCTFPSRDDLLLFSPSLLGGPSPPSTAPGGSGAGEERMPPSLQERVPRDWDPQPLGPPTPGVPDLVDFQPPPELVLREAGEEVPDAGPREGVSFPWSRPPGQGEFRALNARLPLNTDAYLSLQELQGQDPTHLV
T2 sequence (looked up) 3: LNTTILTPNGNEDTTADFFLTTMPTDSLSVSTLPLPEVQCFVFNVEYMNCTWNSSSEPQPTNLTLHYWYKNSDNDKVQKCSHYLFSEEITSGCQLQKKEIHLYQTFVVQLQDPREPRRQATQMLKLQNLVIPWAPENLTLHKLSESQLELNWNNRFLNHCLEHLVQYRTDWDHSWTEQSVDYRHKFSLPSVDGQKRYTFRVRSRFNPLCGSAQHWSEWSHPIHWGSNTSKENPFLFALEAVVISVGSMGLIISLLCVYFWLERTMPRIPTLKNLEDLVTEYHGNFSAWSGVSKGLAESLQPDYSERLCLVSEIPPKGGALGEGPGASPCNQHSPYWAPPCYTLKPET

T3: trimeric murine IL-2 receptor (IL-2Rα, IL-2Rβ, and IL-2Rγ) on CTLL-2 cells (murine, UniProt P01590 22-268; P16297 27-539; P34902 23-369)
T3 sequence (looked up) 1: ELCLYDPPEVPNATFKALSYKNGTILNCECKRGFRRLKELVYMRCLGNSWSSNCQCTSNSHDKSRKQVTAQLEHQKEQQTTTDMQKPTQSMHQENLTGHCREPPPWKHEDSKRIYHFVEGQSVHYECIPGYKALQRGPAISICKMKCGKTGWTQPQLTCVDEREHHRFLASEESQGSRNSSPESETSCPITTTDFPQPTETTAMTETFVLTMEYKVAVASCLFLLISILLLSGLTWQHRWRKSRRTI
T3 sequence (looked up) 2: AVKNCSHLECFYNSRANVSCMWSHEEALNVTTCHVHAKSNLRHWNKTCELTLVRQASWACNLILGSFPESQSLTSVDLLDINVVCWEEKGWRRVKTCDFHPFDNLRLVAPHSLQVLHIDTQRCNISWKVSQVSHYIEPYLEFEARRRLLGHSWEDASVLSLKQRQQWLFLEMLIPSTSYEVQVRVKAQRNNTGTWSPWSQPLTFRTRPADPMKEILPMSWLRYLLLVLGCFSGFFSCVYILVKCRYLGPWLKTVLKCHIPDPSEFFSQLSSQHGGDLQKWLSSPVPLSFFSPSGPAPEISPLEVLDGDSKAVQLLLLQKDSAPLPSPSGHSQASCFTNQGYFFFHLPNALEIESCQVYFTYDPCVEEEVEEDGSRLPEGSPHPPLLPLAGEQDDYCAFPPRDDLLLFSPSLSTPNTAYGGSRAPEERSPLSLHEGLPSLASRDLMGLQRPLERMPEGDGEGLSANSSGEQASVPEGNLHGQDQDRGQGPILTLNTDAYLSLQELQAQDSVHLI
T3 sequence (looked up) 3: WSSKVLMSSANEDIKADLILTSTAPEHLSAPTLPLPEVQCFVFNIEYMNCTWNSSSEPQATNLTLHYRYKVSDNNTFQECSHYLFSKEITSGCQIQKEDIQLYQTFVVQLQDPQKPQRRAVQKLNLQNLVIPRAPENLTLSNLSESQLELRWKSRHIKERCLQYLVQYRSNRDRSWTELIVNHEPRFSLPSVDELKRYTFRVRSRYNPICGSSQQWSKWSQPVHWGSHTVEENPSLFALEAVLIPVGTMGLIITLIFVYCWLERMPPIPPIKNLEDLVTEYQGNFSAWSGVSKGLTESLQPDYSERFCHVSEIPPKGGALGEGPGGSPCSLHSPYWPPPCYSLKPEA


Experiments:
[1] = molecular target: T4, IL-2Rβγ heterodimer, custom biotinylated Fc fusion protein (human IL-2Rβ 27-240-Fc-FLAG / human IL-2Rγ … (human, site-specific biotinylation at the AviTag)); assay: SPR (Biacore), CM4 chip, biotinylated receptor on neutravidin
T4 construct: Extracellular regions fused to IgG1 knob-in-hole Fc subunits with tags; also called IL-2 receptor βγ heterodimer; Fc-IL-2Rβγ
Experimental: (§1) Fc-IL-2 variant binding data was collected on a Biacore platform using a CM4 chip. Neutravidin was immobilized using standard amine coupling methods and used to capture biotinylated receptors. The source, preparation and immobilization of biotinylated IL-2Rα and IL-2Rβγ heterodimer was as described in Example 4. Proleukin was used as a comparator. Fc-IL-2 variants and Proleukin were injected at various concentrations over these surfaces. Kinetic data obtained from these injections was used to extract kₒₙ and koff to calculate KD (KD=Koff/kₒₙ).

[2] = molecular target: T1, IL-2Rα (recombinant IL-2 receptor α, …); assay: as above
Experimental: as §1

[3] = molecular target: T2, IL-2Rαβγ on KHYG-1 cells (human NK …); assay: cell-based or functional assay
[4] = molecular target: T3, trimeric murine IL-2 receptor (IL-2Rα, …); assay: cell-based or functional assay

Kd [1]	Kd [2]	Proliferation of KHYG-1 NK cells, EC50 [3]	STAT5 activation of CTLL-2 cells, EC50 [4]	Binder
0.069 nM	> 60000 nM	0.235 nM	25.5 nM	Fc-IL-2v heterodimer 107.46 (hIL-2v_Δ1-5_F42A_E62A_C125S) (Fc fusion, hIgG4 knob-in-hole Fc heterodimer, one IL-2v on the knob chain) chain 1: ESKYGPPCPPCPAPEAAGGPSVFLFPPKPKDTLMISRTPEVTCVVVDVSQEDPEVQFNWYVDGVEVHNAKTKPREEQFNSTYRVVSVLTVLHQDWLNGKEYKCKVSNKGLPSSIEKTISKAKGQPREPQVYTLPPSQEEMTKNQVSLWCLVKGFYPSDIAVEWESNGQPENNYKTTPPVLDSDGSFFLYSRLTVDKSRWQEGNVFSCSVMHEALHNHYTQKSLSLSLGGGGGSGGGGSGGGGSGGGGSSTKKTQLQLEHLLLDLQMILNGINNYKNPKLTRMLTAKFYMPKKATELKHLQCLEEALKPLEEVLNLAQSKNFHLRPRDLISNINVIVLELKGSETTFMCEYADETATIVEFLNRWITFSQSIISTLT chain 2: ESKYGPPCPPCPAPEAAGGPSVFLFPPKPKDTLMISRTPEVTCVVVDVSQEDPEVQFNWYVDGVEVHNAKTKPREEQFNSTYRVVSVLTVLHQDWLNGKEYKCKVSNKGLPSSIEKTISKAKGQPREPQVYTLPPSQEEMTKNQVSLSCAVKGFYPSDIAVEWESNGQPENNYKTTPPVLDSDGSFFLVSRLTVDKSRWQEGNVFSCSVMHEALHNRFTQKSLSLSLGK
0.076 nM	> 60000 nM	0.336 nM	61.2 nM	Fc-IL-2v heterodimer 114.46 (hIL-2v_Δ1-5_R38G_F42A_E62A_C125S) (Fc fusion, hIgG4 knob-in-hole Fc heterodimer, one IL-2v on the knob chain) chain 1: ESKYGPPCPPCPAPEAAGGPSVFLFPPKPKDTLMISRTPEVTCVVVDVSQEDPEVQFNWYVDGVEVHNAKTKPREEQFNSTYRVVSVLTVLHQDWLNGKEYKCKVSNKGLPSSIEKTISKAKGQPREPQVYTLPPSQEEMTKNQVSLWCLVKGFYPSDIAVEWESNGQPENNYKTTPPVLDSDGSFFLYSRLTVDKSRWQEGNVFSCSVMHEALHNHYTQKSLSLSLGGGGGSGGGGSGGGGSGGGGSSTKKTQLQLEHLLLDLQMILNGINNYKNPKLTGMLTAKFYMPKKATELKHLQCLEEALKPLEEVLNLAQSKNFHLRPRDLISNINVIVLELKGSETTFMCEYADETATIVEFLNRWITFSQSIISTLT chain 2: ESKYGPPCPPCPAPEAAGGPSVFLFPPKPKDTLMISRTPEVTCVVVDVSQEDPEVQFNWYVDGVEVHNAKTKPREEQFNSTYRVVSVLTVLHQDWLNGKEYKCKVSNKGLPSSIEKTISKAKGQPREPQVYTLPPSQEEMTKNQVSLSCAVKGFYPSDIAVEWESNGQPENNYKTTPPVLDSDGSFFLVSRLTVDKSRWQEGNVFSCSVMHEALHNRFTQKSLSLSLGK
